More profilin 1 co-precipitated with clathrin from AMS-36-treated than from DMSO-treated cells data for 1 substance are collected here from publication PMC3542269.

For the assay, the target named is clathrin (human (endogenous in PC-3)) (UniProt Q00610). Briefly: co-IP; PC-3 lysate (50 mM HEPES pH 5.5, 1 mM EDTA, 150 mM NaCl, 1% Triton X-100); anti-clathrin (1 µg) or anti β-actin (5 µg) antibody overnight at 4°C, Protein A Sepharose; profilin 1 detected by Western blot; cells treated 24 h with 10 µM AMS-36 (cathepsin X inhibitor) or DMSO. Background: A western blot detects proteins with antibodies after separation by electrophoresis.
Chain of UniProt Q00610 (Q00610 whole entry): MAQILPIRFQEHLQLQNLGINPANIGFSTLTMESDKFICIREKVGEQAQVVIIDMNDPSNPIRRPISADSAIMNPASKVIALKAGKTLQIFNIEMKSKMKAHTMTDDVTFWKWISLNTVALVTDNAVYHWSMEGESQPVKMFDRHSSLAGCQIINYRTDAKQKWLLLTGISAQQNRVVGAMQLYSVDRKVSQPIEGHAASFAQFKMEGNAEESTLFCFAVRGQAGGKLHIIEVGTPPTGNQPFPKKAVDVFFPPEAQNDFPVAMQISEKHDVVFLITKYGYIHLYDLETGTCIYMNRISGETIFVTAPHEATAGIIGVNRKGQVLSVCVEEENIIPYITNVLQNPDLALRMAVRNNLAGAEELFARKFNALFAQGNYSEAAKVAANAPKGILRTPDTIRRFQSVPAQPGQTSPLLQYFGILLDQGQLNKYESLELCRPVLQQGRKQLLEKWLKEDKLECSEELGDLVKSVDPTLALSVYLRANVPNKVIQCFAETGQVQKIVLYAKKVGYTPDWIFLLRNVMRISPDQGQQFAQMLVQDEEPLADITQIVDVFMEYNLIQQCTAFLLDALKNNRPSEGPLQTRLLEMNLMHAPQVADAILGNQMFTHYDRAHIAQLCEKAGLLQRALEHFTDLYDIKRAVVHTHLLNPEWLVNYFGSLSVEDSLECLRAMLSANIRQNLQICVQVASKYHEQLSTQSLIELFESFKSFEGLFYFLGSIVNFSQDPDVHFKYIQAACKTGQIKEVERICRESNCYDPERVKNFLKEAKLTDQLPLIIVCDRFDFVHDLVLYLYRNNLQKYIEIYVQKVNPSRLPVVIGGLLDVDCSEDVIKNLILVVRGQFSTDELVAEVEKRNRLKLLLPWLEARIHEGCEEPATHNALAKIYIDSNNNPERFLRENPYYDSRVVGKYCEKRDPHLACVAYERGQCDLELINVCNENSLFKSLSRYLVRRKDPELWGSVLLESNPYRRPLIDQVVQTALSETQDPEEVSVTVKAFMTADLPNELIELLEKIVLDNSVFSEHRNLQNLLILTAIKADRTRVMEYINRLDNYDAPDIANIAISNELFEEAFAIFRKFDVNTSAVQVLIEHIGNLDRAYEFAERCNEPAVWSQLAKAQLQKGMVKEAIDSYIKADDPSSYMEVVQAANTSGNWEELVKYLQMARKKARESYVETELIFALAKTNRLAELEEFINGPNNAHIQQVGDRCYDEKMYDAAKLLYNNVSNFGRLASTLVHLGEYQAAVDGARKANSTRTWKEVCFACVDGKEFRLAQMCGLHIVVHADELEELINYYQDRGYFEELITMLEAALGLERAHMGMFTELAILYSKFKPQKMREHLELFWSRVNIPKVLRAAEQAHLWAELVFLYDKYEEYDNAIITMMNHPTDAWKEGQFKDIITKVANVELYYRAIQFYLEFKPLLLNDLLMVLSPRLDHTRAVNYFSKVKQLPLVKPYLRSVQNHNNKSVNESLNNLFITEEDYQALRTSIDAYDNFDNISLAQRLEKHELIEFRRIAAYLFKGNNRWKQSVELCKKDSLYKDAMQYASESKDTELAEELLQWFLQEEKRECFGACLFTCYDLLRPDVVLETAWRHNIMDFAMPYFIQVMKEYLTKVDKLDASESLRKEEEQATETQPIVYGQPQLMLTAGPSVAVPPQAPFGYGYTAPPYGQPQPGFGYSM

Chain of profilin 1 (P07737 whole entry): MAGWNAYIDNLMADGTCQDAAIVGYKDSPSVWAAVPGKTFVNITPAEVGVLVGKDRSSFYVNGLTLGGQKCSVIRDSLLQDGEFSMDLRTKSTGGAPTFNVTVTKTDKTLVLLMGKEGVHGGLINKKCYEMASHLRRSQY

For “profilin 1 (from UniProt P07737 1-140) (natural protein)”, the more profilin 1 co-precipitated with clathrin from AMS-36-treated than from DMSO-treated cells was determined as 44%.
